Measured values from patent US20210063414A1, “METHODS FOR PREVENTING AND/OR TREATING BONE LOSS CONDITIONS BY MODULATING IRISIN” (Dana-Farber Cancer Institute, Inc., priority 2018, published 2021).

What was measured:
[1] = biological target: T1, MLO-Y4 cell surface proteins (Mus musculus, UniProt P41216); assay: Crosslinking/co-immunoprecipitation/mass spectrometry (TMT quantitative proteomics) to identify irisin receptors; format: binding; conditions: co-precipitated protein Acsl1 (ACSL1_MOUSE)
T1 construct: endogenous in cells; host or cells: MLO-Y4
T1 sequence (P41216 1-699): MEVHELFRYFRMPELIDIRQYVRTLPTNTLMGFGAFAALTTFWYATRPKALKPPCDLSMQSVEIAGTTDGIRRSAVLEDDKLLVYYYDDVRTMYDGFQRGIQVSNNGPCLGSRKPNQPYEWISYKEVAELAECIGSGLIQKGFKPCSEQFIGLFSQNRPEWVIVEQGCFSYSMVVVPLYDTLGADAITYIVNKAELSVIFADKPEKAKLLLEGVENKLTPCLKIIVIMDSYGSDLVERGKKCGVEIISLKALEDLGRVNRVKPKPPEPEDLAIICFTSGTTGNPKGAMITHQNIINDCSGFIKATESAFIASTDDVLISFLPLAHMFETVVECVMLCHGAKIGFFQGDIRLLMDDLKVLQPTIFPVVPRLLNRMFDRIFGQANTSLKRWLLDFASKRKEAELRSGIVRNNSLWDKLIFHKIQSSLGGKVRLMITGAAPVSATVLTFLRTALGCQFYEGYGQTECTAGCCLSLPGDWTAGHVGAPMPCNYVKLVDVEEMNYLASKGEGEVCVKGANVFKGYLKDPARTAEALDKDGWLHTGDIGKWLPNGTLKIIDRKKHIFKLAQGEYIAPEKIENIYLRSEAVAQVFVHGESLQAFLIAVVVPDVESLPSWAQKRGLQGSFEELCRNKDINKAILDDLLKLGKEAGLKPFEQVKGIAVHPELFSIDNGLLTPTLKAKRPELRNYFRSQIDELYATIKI
In short: (§1)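 Mouse MLO-Y4 cells were switched to serum-free FreeStyle medium for 4 h, chilled, then exposed to 10 nM His-tagged irisin (or adipsin as control) for 20 min. Cells were crosslinked with 1.5 mM DTSSP (30 min, ice), and bound proteins were pulled down on Ni-NTA and eluted with 250 mM imidazole. Eluates were separated by SDS-PAGE, trypsin-digested in gel, TMT 6-plex labelled and quantified by MS3-based LC-MS/MS on an Orbitrap Fusion Lumos.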

[2] = biological target: T2, MLO-Y4 cell surface proteins (Mus musculus, UniProt P48997); assay: as above; format: binding; conditions: co-precipitated protein Ivl (INVO_MOUSE)
T2 construct: endogenous in cells; host or cells: MLO-Y4
T2 sequence (P48997 1-467): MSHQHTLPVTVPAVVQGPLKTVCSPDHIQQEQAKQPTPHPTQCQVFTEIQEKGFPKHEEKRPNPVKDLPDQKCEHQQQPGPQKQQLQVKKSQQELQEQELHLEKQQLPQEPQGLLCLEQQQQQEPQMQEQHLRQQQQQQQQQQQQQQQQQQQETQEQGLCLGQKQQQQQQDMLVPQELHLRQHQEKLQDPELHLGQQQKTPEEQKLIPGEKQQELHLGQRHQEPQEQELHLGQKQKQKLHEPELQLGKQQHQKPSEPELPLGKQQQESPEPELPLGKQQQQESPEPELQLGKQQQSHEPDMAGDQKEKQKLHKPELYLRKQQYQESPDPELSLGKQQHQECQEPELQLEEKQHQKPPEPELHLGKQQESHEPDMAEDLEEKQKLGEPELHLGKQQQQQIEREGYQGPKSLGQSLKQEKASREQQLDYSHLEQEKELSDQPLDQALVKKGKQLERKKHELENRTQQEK
In short: as §1

B1: irisin: secreted cleaved form of FNDC5; recombinant human/mouse irisin with C-terminal his tag produced in HEK293 cells (protein)
chain: DSPSAPVNVTVRHLKANSAVVSWDVLEDEVVIGFAISQQKKDVRMLRFIQEVNTTTRSCALWDLEEDTEYIVHVQAISIQGQSPASEPVLFKTPREAEKMASKNKDEVTMKE
modifications: left off: small tags and cut ends
notes: secreted cleaved form of FNDC5; recombinant human/mouse irisin with C-terminal his tag produced in HEK293 cells
Q: Which TMT signal-to-noise ratio [1] does the source give for B1 here?
A: 192.15

Q: And the “irisin/adipsin TMT signal-to-noise ratio” value [1]?
A: 0.532

Q: What about the TMT signal-to-noise ratio [2] of the same molecule?
A: 13.3857

Q: And the “irisin/adipsin TMT signal-to-noise ratio” value [2]?
A: 0.060
